According to the RNAGym collection of RNA variant scans (doi:10.7554/elife.80360):

B1: Hairpin Ribozyme (parent)
chain: GUCCUCUUUCACGUGCGCGUGAAAGAGAGAAGUGAACCAGAGAAACACACGUUGUGGUAUAUUACCUGGUA

Variants of: B1
Experiment: self-cleavage, relative activity (ratio to wild type); higher = more cleavage; co-transcriptional

In order of rising self-cleavage:
1. U33A G40C  0.0171
2. A49U A64U  0.0352
3. G15U G29A  0.0502
4. A44U A49C  0.0643
5. G29C U55G  0.0655
6. G29U G34C  0.0691
7. C6A A45G  0.0698
8. A31U C66U  0.0749
9. C18G A43U  0.0776
10. A11G C46A  0.0804
11. A26U G27U  0.0812
12. G27C A61C  0.0843
13. C16A A59G  0.085
14. C18U A31C  0.0854
15. A30C U33G  0.0878
16. C37U U62C  0.0928
17. C3G A61G  0.0947
18. A23C C48G  0.0948
19. G27A U33A  0.0964
20. A36U G40C  0.101
21. U20G G32C  0.105
22. A11G U55C  0.105
23. G29U G69A  0.105
24. A45C G57C  0.105
25. G13C A47U  0.109
26. G27U U53A  0.111
27. U2A G29U  0.111
28. A47G C65G  0.112
29. G57U U60A  0.114
30. A45U C66U  0.117
31. C50A U67G  0.118
32. C48G A59C  0.119
33. G27A G29C  0.12
34. G15C C48A  0.121
35. U8A U62G  0.123
36. U20C A43U  0.125
37. A30C A43U  0.128
38. U7G U33A  0.131
39. G32A U63A  0.132
40. G15A A31U  0.133
41. A23C A49C  0.136
42. U67G G68A  0.138
43. A43C C50G  0.143
44. G40C G68U  0.148
45. G1C C65G  0.148
46. G56A G69A  0.148
47. C4G C48A  0.151
48. A39G C65G  0.152
49. U5A C66U  0.153
50. G1A G29U  0.157
51. G27U G68U  0.157
52. G21A C65G  0.158
53. U7A C46U  0.159
54. C12U A49U  0.159
55. U33G C46U  0.16
56. U2C U70C  0.16
57. U5C G32A  0.162
58. C18G A44C  0.164
59. C46G A71G  0.166
60. G42U U63G  0.168
61. G27U A43G  0.169
62. C37A G40A  0.174
63. G42C A44U  0.174
64. A26C C50G  0.174
65. A35G A64C  0.174
66. A28C U63G  0.176
67. U20A A44U  0.177
68. U2C G56U  0.178
69. U52C U67A  0.178
70. A44U G54A  0.181
71. U33A G42U  0.181
72. G56U G68A  0.183
73. C66A A71U  0.184
74. U20C U63C  0.184
75. U2C G21U  0.185
76. C65G U70C  0.189
77. U53A G69C  0.19
78. G40A U58G  0.19
79. A59U G69U  0.191
80. U55C C65G  0.194
81. C4A G32A  0.195
82. C18A A44G  0.199
83. U60G U67G  0.202
84. A23C C48U  0.202
85. G29C A59C  0.205
86. U2C A36U  0.207
87. A64U G68C  0.213
88. A49G G68U  0.215
89. U20C G56C  0.216
90. U33C A47G  0.219
91. C6G A26C  0.22
92. U5G U70C  0.226
93. A24C G27C  0.228
94. C4G G54U  0.228
95. A23U G32C  0.231
96. C12G G68A  0.233
97. G25C G42C  0.236
98. G1C U53C  0.239
99. C4A A31U  0.245
100. A30G U60C  0.252
101. G17C U55A  0.257
102. G29C A43G  0.261
103. U52A G69C  0.268
104. C4U G42A  0.27
105. G1C A22C  0.274
106. U20C C65U  0.284
107. U14G A39U  0.285
108. U9A G69A  0.296
109. G34A A47G  0.302
110. U2C U60A  0.312
111. C37U C65U  0.316
112. U8A A26C  0.334
113. C10G A36U  0.336
114. C3U U9G  0.337
115. A26G A39G  0.379
116. A28G A31G  0.416
117. G25U A26G  0.421
118. A35C A71G  0.422
119. A11C U55A  0.448
120. G34A U67C  0.463
121. G34A C65G  0.477
122. U5A G15U  0.495
123. G15A U58G  0.501
124. C37U U70G  0.505
125. U8C U14A  0.51
126. A22C G54U  0.514
127. C6G G25A  0.523
128. U7C A11C  0.525
129. A11U G13U  0.54
130. C37U U58G  0.553
131. G1A U2A  0.574
132. C10A U60C  0.579
133. G21U U58G  0.585
134. C10A A24C  0.598
135. U7C A35C  0.612
136. G25C A41C  0.622
137. G19C G25U  0.623
138. G19C A24C  0.639
139. A22G A26C  0.649
140. U20C G21A  0.686
141. G19A G51C  0.702
142. U14G A23G  0.703
143. C3A U7G  0.703
144. U8A A23C  0.712
145. C16G G19U  0.719
146. C16A G21U  0.72
147. A41C U53G  0.758
148. G51C U52A  0.761
149. G19A U20A  0.762
150. G15U A28U  0.765
151. U8C C18A  0.787
152. G34A A36U  0.832
153. G15U G19U  0.853
154. C16U A71U  0.859
155. A36C A41U  0.92
156. C12U G19U  0.954
157. A11U U53C  0.975
158. G17U A28G  1.02
159. A23C A36G  1.08
160. C16G U52A  1.09
161. G19A A41C  1.13
162. C18A A71G  1.14
163. U20C U60A  1.15
164. A35G U53A  1.25
165. U60C U70C  1.28
166. C16G A71C  1.35
167. G34U U58A  1.5
